Columns and labels:
[1] = system: Melanoma cells B16F10 tumor; experiment: B16F10 subcutaneous tumor model, tumor growth and CD31 blood vessel count (Example 10-3); type: in vivo, BALB/c nude mouse; conditions: 9 mg/kg or 18 mg/kg into the abdominal cavity one time a day
Description: Melanoma cells B16F10 were suspended in medium at a density of 1×10^7 cells/ml. 0.1 ml of the cell suspension was injected subcutaneously to 5-6 week old BALB/c nude mouse (purchased from Jung-Ang Animal Inc. Ltd., Korea) to make a subcutaneous tumor model. When the volume of the tumor reached about 25 mm^3, mice having similar tumor size were selected and divided into three groups. The fas-1 domain (βig-h3 D-IV) prepared in Example 1 above was injected into the abdominal cavity of the mice of each group at the amount of 9 mg/kg or 18 mg/kg one time a day. A control was injected with saline solution. Thereafter, the body weight and tumor size of the mice were checked at intervals of three days. The diameter of the tumor was measured with slide calipers, and the volume of the tumor was calculated according to the equation 1 above.
Meanwhile, the tumor was removed after a given time, photographed with a stereoscopic microscope, weighed, and then fixed in 4% paraformaldehyde. The fixed tumor was immersed in 30%, 20% and 10% sucrose solutions one after another for one hour each solution, frozen rapidly with liquid nitrogen spray, and then left to stand at […] for two hours. The frozen tumor was sliced with a tissue microtome (Leica, Germany) to make tissue slides which were then dried at room temperature. Thereafter, the tissue slides were immuno-stained with CD31 (Pharmingen, San Diego, Calif.), an antibody that binds specifically to vascular endothelial cells. The immuno-stained slides were observed under a microscope, and the number of blood vessels from 3-5 LPF (low power fields; x100) was counted and averaged. Each group consisted of 5 or 6 members.

HUVECs [2] = experiment: Transwell migration of endothelial cells toward βig-h3 (Example 4-2); type: cell-based, human
Description: The present inventors tested whether the fas-1 domain has the activity to inhibit the migration of endothelial cells (Nam, J. O. et al., J. Biol. Chem., 278:25902-25909, 2003). Cell migration assay was performed in a transwell plate (8 μm pore size, Costar, Cambridge, Mass.). The undersurface of the membrane was coated with the recombinant βig-h3 His-1-b (10 μg/ml) protein prepared in Example 1, at 4° C., and then, blocked for 1 hour at room temperature with PBS buffer containing 2% BSA. Meanwhile, HUVECs were added with the fas-1 domain (βig-h3 D-IV) prepared in Example 1, and preincubated at 37° C. for 30 minutes. A control was added with 2% BSA. Then, the HUVECs preincubated with the fas-1 domain were suspended in medium at a density of 3×10^5 cells/ml, and 0.1 ml of the cell suspension was added to the upper compartment of the filter. The cells were allowed to migrate at 37° C. for 6-8 hours.
Migration was terminated by removing the cells from the upper compartment of the filter with a cotton swab. The filters were fixed with 8% glutaraldehyde and stained with crystal violet. The extent of cell migration was determined by light microscope, and within each well, cell counting was done in nine randomly selected fields HPF (Microscopic high power fields, x200).

melanoma cells (B16F10) = experiment: Apoptosis by annexin V staining/FACS, melanoma cells (Example 7-1); type: cell-based, murine; conditions: 48 hours
Description: (§1) Annexin V is a protein binding to calcium-dependent phospholipid, and known to have a strong affinity for phosphatidylserine such that apoptosis can be assayed. For this reason, the present inventors performed a test using an annexin V staining kit (Santa Cruz Biotechnology Inc.).
(§2) Each of human umbilical vein endothelial cells (HUVECs) and melanoma cells (B16F10) was suspended in medium at a density of 5×10^5 cells/ml, added to each well of […] and incubated at 37° C. overnight. On the next day, the cells were washed one time with PBS buffer, then added with serum-free medium and incubated at 37° C. for 24 hours. 0.2% FBS-containing fresh medium was treated with the fas-1 domain (βig-h3 D-IV) prepared in Example 1, at various concentrations, then added to each well of the plate and incubated at 37° C. for 48 hours. A negative control was added with PBS, a positive control was incubated with TNF-α or Vitamin C, which are known to induce the apoptosis of endothelial cells and melanoma cells. FITC (fluorescein isothiocyanate)-conjugated annexin V antibodies were added and allowed to react at 4° C. for one hour. After completion of the reaction, unbound annexin V antibodies were removed with PBS buffer, and the apoptosis of the cells was analyzed using FACS (BD Biosciences).

HUVECs [3] = experiment: Endothelial tube formation assay on Matrigel (Examples 9-1 and 11); type: cell-based, human
Description: First, 100 μl of Matrigel (Chemicon, International Inc, Temecula, Calif.) was added to each well of a 96-well plate and allowed to polymerize. HUVECs were suspended in medium at a density of 3×10^5 cells/ml, and 0.1 ml of the cell suspension was added to each well of the plate coated with Matrigel. At this time, 5 μM or 10 μM of the fas-1 domain (βig-h3 D-IV) prepared in Example 1 above was added together. A control was either treated with BSA or had no treatment. Thereafter, the cells were incubated at 37° C. for 16-18 hours. The cells were photographed, and endothelial tubes were counted and averaged.
For this purpose, the second fas-1 domain of βig-h3 (βig-h3 D-II) was prepared in the same manner as in Example 1-1 above. Since each domain of stabilin-II is insoluble, it was prepared in the form of soluble protein by cloning into the BamHI/XhoI sites of a Nus-conjugated pET43.1 vector (Novagen, USA). The prepared recombinant proteins were named “Nus-fas3” and “Nus-fas7”, respectively. A control to the second fas-1 domain of βig-h3 was treated with BSA, and a control to the fas-1 domain of stabilin-II was treated with a Nus protein. Thereafter, an endothelial tube formation assay was performed in the same manner as in Example 9-1.

HUVECs [4] = experiment: Apoptosis by annexin V staining/FACS, endothelial cells (Example 7-1); type: cell-based, human; conditions: 48 hours
Description: as §1, §2

HUVECs [5] = experiment: Endothelial cell proliferation, MTT (Example 6); type: cell-based, human; conditions: 48 hours
Description: HUVECs were suspended in medium at a density of 3×10^4 cells/ml, and 0.1 ml of the cell suspension was added to each well of 96-well plate and incubated at 37° C. overnight. The cells were washed with PBS buffer, and then incubated at 37° C. for 24 hours in serum-free medium. Thereafter, 0.2% FBS-containing medium containing the indicated concentrations of the fas-1 domain (βig-h3 D-IV) prepared in Example 1 was added to each well of the plate and incubated at 37° C. for 48 hours. A control was added with 2% BSA instead of the fas-1 domain. 50 μl of 0.5 mg/ml thiazolyl blue (MTT; Sigma) solution was added to each well, and allowed to react at 37° C. for 4 hours. After the reaction, the medium was removed, and each well was added with DMSO and left to stand at room temperature for a few minutes. Thereafter, the absorbance was measured at 570 nm in a Bio-Rad model 550 microplate reader.

B1: fas-1 domain: recombinant protein containing the fourth fas-1 domain of human βig-h3 (SEQ ID NO: 64) (protein, listed as Homo sapiens)
chain: MGTVMDVLKGDNRFSMLVAAIQSAGLTETLNREGVYTVFAPTNEAFRALPPRERSRLLGDAKELANILKYHIGDEILVSGGIGALVRLKSLQGDKLEVSLKNNVVSVNKEPVAEPDIMATNGVVHVITNVL
[1]
  number of blood vessels stained with CD31 antibody in tumor: significantly smaller than that of the control
  tumor growth rate with time: much lower than that of the control
  tumor size: little or no increase in size even at 10 days after tumor induction
HUVECs [2]; 20 μM fas-1 domain vs 1,000 μM YH peptide
  inhibitory effect of endothelial cell migration compared with YH motif-containing peptide fragment of 18 amino acids: higher
HUVECs [2]; transwell coated with βig-h3 His-1-b 10 μg/ml
  inhibition of migration of endothelial cells promoted by βig-h3: inhibited by the fas-1 domain in a dose-dependent manner
Melanoma cells (B16F10)
  induction of apoptosis of B16F10 cells: did not induce the apoptosis of B16F10 cells
HUVECs [3]; 5 μM or 10 μM, 16-18 hours
  inhibition of endothelial tube formation: inhibited the formation of endothelial tubes on Matrigel in a dose-dependent manner
HUVECs [3]; 10 μM fas-1 domain vs 1 mM YH peptide
  in vitro angiogenesis inhibitory effect compared with YH motif-containing peptide fragment of 18 amino acids: much higher
HUVECs [4]
  induction of apoptosis of HUVECs: induced the apoptosis of HUVECs in a dose-dependent manner
HUVECs [5]
  inhibition of proliferation of endothelial cells: inhibited by fas-1 domain in a dose-dependent manner
